“And” between values parts separate entries of the source, which are not always exact repeats. Equal values may be shown once. Where no end group is shown, it is not given here.
Experiments:
JUN/FOS heterodimer = biological target: T1, JUN/FOS heterodimer (Homo sapiens, UniProt P05412); assay: Competition FRET assay; type: binding
T1 construct: made in house
Method: The amount of acceptor used varied for each curve, taking into account the Kd of the FRET complex in order to obtain a good lower baseline for fitting purposes. Samples were equilibrated for one hour before reading the plates; repeated reading of the plates over several hours gave no change in signal. For the competition experiments, the IC50 was determined in MATLAB by fitting the binding data to the equation signal=[…] , where a and b are the lower and upper baselines, c is the IC50 value, x is the inhibitor concentration, and the Hill coefficient H was set to 1. Ki values were calculated as in Fu et al..

[1] = biological target: ATF5-d1 labeled at the C-terminus; assay: FRET or BRET; direct-binding FRET of the designed peptide with itself (row 'homodimer'; dimer to monomers); acceptor-labelled design titrated into donor-labelled design by note 1 of the tables; 23 °C
CREBZF (human) = CREBZF (human) (UniProt Q9NS37); assay: FRET or BRET; direct-binding FRET in 384-well plates; rhodamine-labelled design (acceptor) titrated 0 to 1 uM into 10 nM fluorescein-labelled bZIP (donor); 150 mM KCl, 50 mM potassium phosphate pH 7.4, 0.1% Tween-20, 0.1% BSA; 23 °C
JUN = JUN (Homo sapiens, UniProt P05412); assay: as above
NFE2L1 = NFE2L1 (Homo sapiens, UniProt Q14494); assay: as above
[2] = biological target: the molecule itself; assay: FRET or BRET; direct-binding FRET of the designed peptide with itself (row 'homodimer'; dimer to monomers); acceptor-labelled design titrated into donor-labelled design by note 1 of the tables; 37 °C
BACH1 = BACH1 (Homo sapiens, UniProt O14867); assay: FRET or BRET; direct-binding FRET in 384-well plates; rhodamine-labelled design (acceptor) titrated 0 to 1 uM into 10 nM fluorescein-labelled bZIP (donor); 150 mM KCl, 50 mM potassium phosphate pH 7.4, 0.1% Tween-20, 0.1% BSA; 4 °C
FOS [3] = biological target: T2, FOS (Homo sapiens, UniProt P01100); assay: as above
MAFB [4] = biological target: T3, MAFB (Homo sapiens, UniProt Q9Y5Q3); assay: as above
ATF6B = ATF6B (Homo sapiens, UniProt Q99941); assay: FRET or BRET; direct-binding FRET in 384-well plates; rhodamine-labelled design (acceptor) titrated 0 to 1 uM into 10 nM fluorescein-labelled bZIP (donor); 150 mM KCl, 50 mM potassium phosphate pH 7.4, 0.1% Tween-20, 0.1% BSA; 23 °C
FOS [5] = biological target: T2, FOS; assay: as above
MAF = MAF (Homo sapiens, UniProt O75444); assay: as above
MAFB [6] = biological target: T3, MAFB; assay: as above
MAFG = MAFG (Homo sapiens, UniProt O15525); assay: as above
NFE2L3 (human) = NFE2L3 (human) (UniProt Q9Y4A8); assay: as above
NFIL3 (human) = NFIL3 (human) (UniProt Q16649); assay: as above
NFIL3 (human), sequence (Q16649 whole entry): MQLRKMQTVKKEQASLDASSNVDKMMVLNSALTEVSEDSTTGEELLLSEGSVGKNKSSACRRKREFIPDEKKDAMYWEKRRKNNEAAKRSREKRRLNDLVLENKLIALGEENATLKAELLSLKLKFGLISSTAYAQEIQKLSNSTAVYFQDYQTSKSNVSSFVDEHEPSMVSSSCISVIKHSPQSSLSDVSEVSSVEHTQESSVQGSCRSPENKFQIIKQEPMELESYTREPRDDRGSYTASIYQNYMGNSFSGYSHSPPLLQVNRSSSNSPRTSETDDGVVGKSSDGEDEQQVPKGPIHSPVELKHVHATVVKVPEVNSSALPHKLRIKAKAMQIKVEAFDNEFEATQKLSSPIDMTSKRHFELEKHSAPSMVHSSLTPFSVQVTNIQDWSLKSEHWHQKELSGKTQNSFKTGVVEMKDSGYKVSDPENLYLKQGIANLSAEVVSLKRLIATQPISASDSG

T3 sequence (Q9Y5Q3 whole entry): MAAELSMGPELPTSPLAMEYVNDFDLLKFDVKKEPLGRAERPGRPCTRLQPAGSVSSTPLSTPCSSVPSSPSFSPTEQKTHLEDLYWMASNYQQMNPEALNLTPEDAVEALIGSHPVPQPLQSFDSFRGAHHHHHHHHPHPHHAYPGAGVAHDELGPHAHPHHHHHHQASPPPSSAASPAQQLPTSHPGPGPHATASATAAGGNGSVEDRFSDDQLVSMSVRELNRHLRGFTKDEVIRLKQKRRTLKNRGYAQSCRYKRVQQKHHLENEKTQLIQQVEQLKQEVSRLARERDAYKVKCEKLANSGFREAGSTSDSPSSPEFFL
T2 sequence (P01100 whole entry): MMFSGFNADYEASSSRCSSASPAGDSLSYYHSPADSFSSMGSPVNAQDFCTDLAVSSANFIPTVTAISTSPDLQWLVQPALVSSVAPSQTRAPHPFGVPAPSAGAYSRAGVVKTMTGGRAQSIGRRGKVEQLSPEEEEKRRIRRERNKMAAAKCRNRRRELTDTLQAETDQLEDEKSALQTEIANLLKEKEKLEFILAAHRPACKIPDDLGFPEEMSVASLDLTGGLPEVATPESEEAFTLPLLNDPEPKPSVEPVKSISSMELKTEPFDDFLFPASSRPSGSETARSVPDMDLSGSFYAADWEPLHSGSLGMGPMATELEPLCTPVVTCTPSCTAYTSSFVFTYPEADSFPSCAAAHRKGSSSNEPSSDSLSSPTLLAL
ATF6B, sequence (Q99941 whole entry): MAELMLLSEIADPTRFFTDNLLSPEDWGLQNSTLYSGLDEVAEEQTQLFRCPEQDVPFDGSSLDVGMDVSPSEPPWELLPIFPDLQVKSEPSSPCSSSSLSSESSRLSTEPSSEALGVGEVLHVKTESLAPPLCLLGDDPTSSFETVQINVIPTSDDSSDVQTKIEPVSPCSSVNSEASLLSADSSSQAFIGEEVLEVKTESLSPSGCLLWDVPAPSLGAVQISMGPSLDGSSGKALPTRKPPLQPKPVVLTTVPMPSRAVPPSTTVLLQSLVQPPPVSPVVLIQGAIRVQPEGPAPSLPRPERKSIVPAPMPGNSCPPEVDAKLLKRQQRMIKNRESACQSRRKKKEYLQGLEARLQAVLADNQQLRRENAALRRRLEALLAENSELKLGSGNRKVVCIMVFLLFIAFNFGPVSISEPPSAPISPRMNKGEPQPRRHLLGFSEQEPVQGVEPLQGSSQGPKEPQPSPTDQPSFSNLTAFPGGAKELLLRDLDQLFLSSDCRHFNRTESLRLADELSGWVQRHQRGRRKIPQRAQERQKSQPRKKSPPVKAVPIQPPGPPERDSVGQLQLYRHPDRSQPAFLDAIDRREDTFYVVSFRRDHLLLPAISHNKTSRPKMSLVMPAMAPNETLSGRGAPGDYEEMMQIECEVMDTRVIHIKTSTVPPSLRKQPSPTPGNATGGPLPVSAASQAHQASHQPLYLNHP
NFE2L1, sequence (Q14494 whole entry): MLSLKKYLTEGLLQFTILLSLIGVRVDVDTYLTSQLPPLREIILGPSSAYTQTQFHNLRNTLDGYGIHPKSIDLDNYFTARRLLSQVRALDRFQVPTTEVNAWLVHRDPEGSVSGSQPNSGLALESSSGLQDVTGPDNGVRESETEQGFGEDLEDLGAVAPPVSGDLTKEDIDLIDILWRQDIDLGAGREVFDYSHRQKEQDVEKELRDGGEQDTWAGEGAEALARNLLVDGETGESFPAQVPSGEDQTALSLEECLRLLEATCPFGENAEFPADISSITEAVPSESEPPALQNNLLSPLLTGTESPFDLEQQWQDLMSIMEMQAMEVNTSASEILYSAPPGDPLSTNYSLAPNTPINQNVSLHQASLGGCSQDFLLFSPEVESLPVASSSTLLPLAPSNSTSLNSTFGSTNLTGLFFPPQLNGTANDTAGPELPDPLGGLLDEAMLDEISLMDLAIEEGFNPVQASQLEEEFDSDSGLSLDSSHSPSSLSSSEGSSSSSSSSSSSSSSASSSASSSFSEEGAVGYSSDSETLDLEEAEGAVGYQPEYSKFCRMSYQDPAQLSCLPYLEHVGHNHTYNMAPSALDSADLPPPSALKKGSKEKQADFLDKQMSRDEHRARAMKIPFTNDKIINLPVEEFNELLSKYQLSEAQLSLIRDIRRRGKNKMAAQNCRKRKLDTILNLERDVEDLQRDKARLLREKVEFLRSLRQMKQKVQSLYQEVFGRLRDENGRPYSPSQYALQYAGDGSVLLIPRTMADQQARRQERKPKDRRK
CREBZF (human), sequence (Q9NS37 whole entry): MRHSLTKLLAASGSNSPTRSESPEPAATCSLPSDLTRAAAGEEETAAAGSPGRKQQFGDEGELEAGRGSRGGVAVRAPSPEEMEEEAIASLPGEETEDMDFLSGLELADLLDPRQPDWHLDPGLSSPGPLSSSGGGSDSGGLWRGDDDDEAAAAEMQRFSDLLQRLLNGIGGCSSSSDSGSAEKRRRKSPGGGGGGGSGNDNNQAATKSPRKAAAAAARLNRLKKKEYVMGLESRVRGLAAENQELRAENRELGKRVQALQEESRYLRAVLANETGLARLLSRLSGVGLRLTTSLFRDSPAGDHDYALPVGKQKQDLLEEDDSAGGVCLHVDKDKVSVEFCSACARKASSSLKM
NFE2L3 (human), sequence (Q9Y4A8 whole entry): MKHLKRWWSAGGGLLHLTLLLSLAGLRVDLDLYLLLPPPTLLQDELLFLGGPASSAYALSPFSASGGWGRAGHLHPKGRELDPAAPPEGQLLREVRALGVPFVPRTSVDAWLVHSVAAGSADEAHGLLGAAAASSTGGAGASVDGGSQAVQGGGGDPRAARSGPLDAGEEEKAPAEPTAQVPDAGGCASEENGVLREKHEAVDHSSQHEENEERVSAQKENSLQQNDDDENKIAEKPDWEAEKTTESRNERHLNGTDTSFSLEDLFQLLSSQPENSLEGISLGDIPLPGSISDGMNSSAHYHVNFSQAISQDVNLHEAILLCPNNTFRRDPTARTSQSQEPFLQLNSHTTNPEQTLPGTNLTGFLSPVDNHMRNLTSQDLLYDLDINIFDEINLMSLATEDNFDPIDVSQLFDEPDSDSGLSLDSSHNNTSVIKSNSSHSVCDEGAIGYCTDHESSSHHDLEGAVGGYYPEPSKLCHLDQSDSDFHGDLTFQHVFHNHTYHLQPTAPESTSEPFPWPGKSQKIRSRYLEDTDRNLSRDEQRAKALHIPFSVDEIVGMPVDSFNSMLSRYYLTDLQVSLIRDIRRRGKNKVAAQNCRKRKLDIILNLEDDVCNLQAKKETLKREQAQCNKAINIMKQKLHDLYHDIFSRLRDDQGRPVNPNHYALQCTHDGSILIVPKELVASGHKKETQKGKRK
JUN, sequence (P05412 whole entry): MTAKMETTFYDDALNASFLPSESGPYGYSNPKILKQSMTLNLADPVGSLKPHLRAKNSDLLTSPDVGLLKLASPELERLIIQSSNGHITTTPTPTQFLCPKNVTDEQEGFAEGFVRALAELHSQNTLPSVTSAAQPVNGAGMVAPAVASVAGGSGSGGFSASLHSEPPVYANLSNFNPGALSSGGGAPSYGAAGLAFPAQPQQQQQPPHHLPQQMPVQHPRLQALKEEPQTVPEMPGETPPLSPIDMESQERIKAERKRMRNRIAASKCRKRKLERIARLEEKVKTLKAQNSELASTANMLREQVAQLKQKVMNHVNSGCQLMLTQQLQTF
BACH1, sequence (O14867 whole entry): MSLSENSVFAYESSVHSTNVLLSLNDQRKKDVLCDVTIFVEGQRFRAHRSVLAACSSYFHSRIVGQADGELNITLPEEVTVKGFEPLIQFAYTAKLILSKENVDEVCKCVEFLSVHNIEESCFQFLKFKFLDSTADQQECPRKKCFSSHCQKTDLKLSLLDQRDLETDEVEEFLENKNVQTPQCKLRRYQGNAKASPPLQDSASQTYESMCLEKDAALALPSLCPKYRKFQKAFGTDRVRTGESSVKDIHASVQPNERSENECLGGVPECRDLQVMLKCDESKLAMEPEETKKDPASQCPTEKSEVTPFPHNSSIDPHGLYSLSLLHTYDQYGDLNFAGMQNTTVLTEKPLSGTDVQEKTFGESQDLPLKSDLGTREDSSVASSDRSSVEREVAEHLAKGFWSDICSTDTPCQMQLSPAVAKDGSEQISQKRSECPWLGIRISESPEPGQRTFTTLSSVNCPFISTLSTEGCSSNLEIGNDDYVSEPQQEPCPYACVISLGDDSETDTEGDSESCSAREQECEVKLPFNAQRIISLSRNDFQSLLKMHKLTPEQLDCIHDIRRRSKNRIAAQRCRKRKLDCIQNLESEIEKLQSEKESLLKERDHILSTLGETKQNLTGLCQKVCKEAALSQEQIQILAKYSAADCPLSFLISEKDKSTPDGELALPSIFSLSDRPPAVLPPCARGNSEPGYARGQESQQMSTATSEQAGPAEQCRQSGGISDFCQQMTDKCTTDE
MAFG, sequence (O15525 whole entry): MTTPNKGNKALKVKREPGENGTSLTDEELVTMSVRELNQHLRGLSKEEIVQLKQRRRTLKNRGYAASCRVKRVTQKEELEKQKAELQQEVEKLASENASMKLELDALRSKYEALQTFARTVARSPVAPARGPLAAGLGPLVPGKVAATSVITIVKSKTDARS

SIAATLEKEEANLEKMNKKLAAEIESLLKEKDKLESVLNYHE [JUN-d1]
IC50 (JUN/FOS heterodimer): 245 nM

B1: ATF5-d1 labeled at the C-terminus (designed binder)
chain: GESKEYKKGSGSKRIAYLRQRIAELRNENHVLESRIQRMEKEKDALQQDRDHLEYELGC(Rhodamine Red C2‑maleimide)
modifications: not fully specified
Kd [1]: 1000 nM
Kd (CREBZF (human)): > 5000 nM
Kd (JUN): > 5000 nM
Kd (NFE2L1): > 5000 nM

B2: ATF4-d1 labeled at the C-terminus (designed binder)
chain: GESKEYKKGSGSNQIKTLRTRLSKLRKDNLQLEKDIANLERKAKDLRAEKEQLEYELGC
modifications: also: C59 label by assay: Rhodamine Red C2-maleimide or fluorescein-5-maleimide
notes: solubility linker after the His6 tag; added to the C-terminus for labeling; one molecule for the rhodamine- and the fluorescein-labelled form; the assay tells which label stood there; also called ATF4-d1-Rhodamine; ATF4-d1-FITC; source: E. coli RP3098, purified (Ni-NTA under denaturing conditions, reverse-phase HPLC)
Kd [2]: 1820 nM and 1110 nM and 2520 nM
Kd (BACH1): > 5000 nM
Kd (FOS [3]): 1000 nM
Kd (MAFB [4]): > 5000 nM
Kd (ATF6B): 1000 nM
Kd (FOS [5]): 1000 nM
Kd (MAF): > 5000 nM
Kd (MAFB [6]): > 5000 nM
Kd (MAFG): 1000 nM
Kd (NFE2L3 (human)): 1000 nM
Kd (NFIL3 (human)): > 5000 nM

Reference: publication PMC4335062, “Data-Driven Prediction and Design of bZIP Coiled-Coil Interactions” (PLoS Computational Biology, 2015)
